These results are taken from PMC7160673 (2020).

Holding throughout (test): FP
In experiment [1] the target is T1, M Phase Phosphoprotein 8 chromodomain (UniProt Q99549 55-116).
T1 chain: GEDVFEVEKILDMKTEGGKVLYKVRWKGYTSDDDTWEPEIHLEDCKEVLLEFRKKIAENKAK

The target of experiment [2] is T2, Chromodomain Y-like protein 2 chromodomain.
T2 chain: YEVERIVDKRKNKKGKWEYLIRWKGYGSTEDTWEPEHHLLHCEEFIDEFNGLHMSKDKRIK

The target of experiment [3] is T1, M Phase Phosphoprotein 8 chromodomain.

Read-outs that look alike come from different tables or passages of the source. Where no end group is shown, it is not given here. [ ]: non-standard residue; d: D form. The star is where a group is joined. 5FAM = O=C1OC2(c3ccc(O)cc3Oc3cc(O)ccc32)c2ccc(C(=O)*)cc21; Lys(Me3) = C[N+](C)(C)CCCC[C@H](N)C(=O)O

In experiment [1], 5FAM-WAY[Lys(Me3)]TGK (also: flanking glycines, number not given here) [FAM-WAY(Kme3)TGK peptide] yielded a Kd of 1370 nM.
As for 5FAM-TAR[Lys(Me3)]STG (also: flanking glycines, number not given here) [FAM-TAR(Kme3)STG peptide (H3K9me3)], the dissociation constant Kd in experiment [2] was 18.4 µM; in experiment [3], 11.5 µM.
